Laboratory results published in patent US20240025993A1 (Novartis, published 2024).

Columns and labels:
human CD19 = target: T1, human CD19 (human, UniProt P15391 20-556); assay: summary sentence of the examples; no method at this place
T1 construct: whole, on cells; also called huCD19; hCD19
T1 sequence (looked up): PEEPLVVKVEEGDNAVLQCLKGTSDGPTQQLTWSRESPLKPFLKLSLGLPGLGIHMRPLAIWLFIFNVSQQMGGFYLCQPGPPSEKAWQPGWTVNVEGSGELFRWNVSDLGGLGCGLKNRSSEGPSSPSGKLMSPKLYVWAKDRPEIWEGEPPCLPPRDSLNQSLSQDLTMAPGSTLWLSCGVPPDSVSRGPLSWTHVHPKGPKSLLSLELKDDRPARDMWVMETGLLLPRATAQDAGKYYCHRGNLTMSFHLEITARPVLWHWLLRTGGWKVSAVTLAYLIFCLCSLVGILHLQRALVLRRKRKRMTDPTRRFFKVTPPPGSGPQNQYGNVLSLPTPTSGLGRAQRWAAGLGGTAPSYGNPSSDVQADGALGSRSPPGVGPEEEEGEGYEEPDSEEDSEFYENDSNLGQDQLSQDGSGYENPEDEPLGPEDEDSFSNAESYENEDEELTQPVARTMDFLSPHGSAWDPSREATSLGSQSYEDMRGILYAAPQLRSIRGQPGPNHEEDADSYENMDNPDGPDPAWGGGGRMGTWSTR

[1] = target: T2, human Fc gamma receptor 1A (human, UniProt P12314 16-288, limits assumed); assay: SPR (Biacore T200), antibody amine-coupled on CM5 chip, human FcγRIA as analyte; maximum response (RU)
T2 construct: also called hFcgammaRIA; hFcγRIA
Experimental: Surface plasmon resonance was conducted using a Biacore T200 to assess binding affinity of antibody WT and variants to human FcγR1A.
The antibodies were covalently immobilized on a CM5 sensor chip whereas Fc gamma receptor 1A served as analyte in solution (FIG. 38). Antibodies were diluted in 10 mM sodium acetate pH 4 and immobilized at a density of approximately 950 resonance units (RU) on the CM5 sensor chip applying a standard amine coupling procedure. Flow cell 1 was blank immobilized to serve as a reference. The kinetic binding data were collected by subsequent injections of 1:2 dilution series of the human Fc gamma receptor 1A on all flow cells at a flow rate of 30 μl/min and at a temperature of 25° C. […] The chip surface was regenerated using 20 mM glycine pH 2.0 solution after each measuring cycle. Zero concentration samples (blank runs) were measured to allow double-referencing during data evaluation.
Data were evaluated using the Biacore T200 evaluation software. The raw data were double referenced, i.e. the response of the measuring flow cell was corrected for the response of the reference flow cell, and in a second step the response of a blank injection was subtracted. Then the sensorgrams were fitted by applying a 1:1 kinetic binding model to calculate dissociation equilibrium constants. In addition, the maximum response reached during the experiment was monitored. Maximum response describes the binding capacity of the surface in terms of the response at saturation.

T2 sequence (P12314 16-288 limits assumed): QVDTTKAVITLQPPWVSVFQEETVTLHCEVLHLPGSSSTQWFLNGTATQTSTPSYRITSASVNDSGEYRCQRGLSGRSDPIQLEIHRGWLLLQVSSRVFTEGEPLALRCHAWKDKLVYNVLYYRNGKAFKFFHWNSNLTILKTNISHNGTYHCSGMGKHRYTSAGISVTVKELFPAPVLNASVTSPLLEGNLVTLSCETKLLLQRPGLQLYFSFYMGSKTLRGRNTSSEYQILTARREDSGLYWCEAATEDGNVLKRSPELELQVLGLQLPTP

Binder | binding result (human CD19) | binding result [1]
NEG258 (antibody, V domains shown, also called CD19 antibody NEG258; anti-CD19 antibody NEG258) VH: QVQLVQSGAEVKKPGASVKVSCKASGYTFTTYWIQWVRQAPGQRLEWMGAVYPGDADTRYTQKFQGRVTLTADRSASTAYMELSSLRSEDTAVYYCGRDAGLEYYALDYWGQGTLVTVSS VL: EIVMTQSPATLSVSPGERATLSCRASQDVGTAVAWYQQKPGQAPRLLIYWASTRHTGIPARFSGSGSGTEFTLTISSLQSEDFAVYFCQQYANFPLYTFGQGTKLEIK | binds | 
Anti-CD19-CD3 / CD58 trispecific antibody, DANAPA IgG1 Fc (Table 33) (other) heavy: QVQLVQSGAEVKKPGASVKVSCKASGYTFTTYWIQWVRQAPGQRLEWMGAVYPGDADTRYTQKFQGRVTLTADRSASTAYMELSSLRSEDTAVYYCGRDAGLEYYALDYWGQGTLVTVSSASTKGPSVFPLAPSSKSTSGGTAALGCLVKDYFPEPVTVSWNSGALTSGVHTFPAVLQSSGLYSLSSVVTVPSSSLGTQTYICNVNHKPSNTKVDKRVEPKSCGGGGSGGGGSEVQLVESGGGLVQPGGSLKLSCAASGFTFNTYAMNWVRQASGKGLEWVGRIRSKYNNYATYYADSVKDRFTISRDDSKSTLYLQMNSLKTEDTAVYYCVRHGNFGNSYVSWFAYWGQGTLVTVSSGGGGSGGGGSGGGGSGGGGSQAVVTQEPSLTVSPGGTVTLTCRSSTGAVTTSNYANWVQQKPGQAPRGLIGGTNKRAPWTPARFSGSLLGDKAALTLSGAQPEDEAEYFCALWYSNLWVFGGGTKLTVLGGGGSDKTHTCPPCPAPELLGGPSVFLFPPKPKDTLMISRTPEVTCVVVAVSHEDPEVKFNWYVDGVEVHNAKTKPREEQYASTYRVVSVLTVLHQDWLNGKEYKCKVSNKALAAPIEKTISKAKGQPREPQVCTLPPSREEMTKNQVSLSCAVKGFYPSDIAVEWESNGQPENNYKTTPPVLDSDGSFFLVSKLTVDKSRWQQGNVFSCSVMHEALHNHYTQKSLSLSPGK SQQIYGVVYGNVTFHVPSNVPLKEVLWKKQKDKVAELENSEFRAFSSFKNRVYLDTVSGSLTIYNLTSSDEDEYEMESPNITDTMKFFLYVLESGGGGSDKTHTCPPCPAPELLGGPSVFLFPPKPKDTLMISRTPEVTCVVVAVSHEDPEVKFNWYVDGVEVHNAKTKPREEQYASTYRVVSVLTVLHQDWLNGKEYKCKVSNKALAAPIEKTISKAKGQPREPQVYTLPPCREEMTKNQVSLWCLVKGFYPSDIAVEWESNGQPENNYKTTPPVLDSDGSFFLYSKLTVDKSRWQQGNVFSCSVMHEALHNHYTQKSLSLSPGK light: not shown |  | no binding (tested: 25 nM)
Anti-CD19-CD3 / CD58 trispecific antibody, LALASKPA IgG1 Fc (Table 33) (other) heavy: QVQLVQSGAEVKKPGASVKVSCKASGYTFTTYWIQWVRQAPGQRLEWMGAVYPGDADTRYTQKFQGRVTLTADRSASTAYMELSSLRSEDTAVYYCGRDAGLEYYALDYWGQGTLVTVSSASTKGPSVFPLAPSSKSTSGGTAALGCLVKDYFPEPVTVSWNSGALTSGVHTFPAVLQSSGLYSLSSVVTVPSSSLGTQTYICNVNHKPSNTKVDKRVEPKSCGGGGSGGGGSEVQLVESGGGLVQPGGSLKLSCAASGFTFNTYAMNWVRQASGKGLEWVGRIRSKYNNYATYYADSVKDRFTISRDDSKSTLYLQMNSLKTEDTAVYYCVRHGNFGNSYVSWFAYWGQGTLVTVSSGGGGSGGGGSGGGGSGGGGSQAVVTQEPSLTVSPGGTVTLTCRSSTGAVTTSNYANWVQQKPGQAPRGLIGGTNKRAPWTPARFSGSLLGDKAALTLSGAQPEDEAEYFCALWYSNLWVFGGGTKLTVLGGGGSDKTHTCPPCPAPEAAGGPSVFLFPPKPKDTLMISRTPEVTCVVVDVKHEDPEVKFNWYVDGVEVHNAKTKPREEQYNSTYRVVSVLTVLHQDWLNGKEYKCKVSNKALAAPIEKTISKAKGQPREPQVCTLPPSREEMTKNQVSLSCAVKGFYPSDIAVEWESNGQPENNYKTTPPVLDSDGSFFLVSKLTVDKSRWQQGNVFSCSVMHEALHNHYTQKSLSLSPGK SQQIYGVVYGNVTFHVPSNVPLKEVLWKKQKDKVAELENSEFRAFSSFKNRVYLDTVSGSLTIYNLTSSDEDEYEMESPNITDTMKFFLYVLESGGGGSDKTHTCPPCPAPEAAGGPSVFLFPPKPKDTLMISRTPEVTCVVVDVKHEDPEVKFNWYVDGVEVHNAKTKPREEQYNSTYRVVSVLTVLHQDWLNGKEYKCKVSNKALAAPIEKTISKAKGQPREPQVYTLPPCREEMTKNQVSLWCLVKGFYPSDIAVEWESNGQPENNYKTTPPVLDSDGSFFLYSKLTVDKSRWQQGNVFSCSVMHEALHNHYTQKSLSLSPGK light: not shown |  | no binding (tested: 25 nM)
Anti-CD19-CD3 / CD58 trispecific antibody, GADAPASK IgG1 Fc (Table 33) (other) heavy: QVQLVQSGAEVKKPGASVKVSCKASGYTFTTYWIQWVRQAPGQRLEWMGAVYPGDADTRYTQKFQGRVTLTADRSASTAYMELSSLRSEDTAVYYCGRDAGLEYYALDYWGQGTLVTVSSASTKGPSVFPLAPSSKSTSGGTAALGCLVKDYFPEPVTVSWNSGALTSGVHTFPAVLQSSGLYSLSSVVTVPSSSLGTQTYICNVNHKPSNTKVDKRVEPKSCGGGGSGGGGSEVQLVESGGGLVQPGGSLKLSCAASGFTFNTYAMNWVRQASGKGLEWVGRIRSKYNNYATYYADSVKDRFTISRDDSKSTLYLQMNSLKTEDTAVYYCVRHGNFGNSYVSWFAYWGQGTLVTVSSGGGGSGGGGSGGGGSGGGGSQAVVTQEPSLTVSPGGTVTLTCRSSTGAVTTSNYANWVQQKPGQAPRGLIGGTNKRAPWTPARFSGSLLGDKAALTLSGAQPEDEAEYFCALWYSNLWVFGGGTKLTVLGGGGSDKTHTCPPCPAPELLGAPSVFLFPPKPKDTLMISRTPEVTCVVVAVKHEDPEVKFNWYVDGVEVHNAKTKPREEQYNSTYRVVSVLTVLHQDWLNGKEYKCKVSNKALAAPIEKTISKAKGQPREPQVCTLPPSREEMTKNQVSLSCAVKGFYPSDIAVEWESNGQPENNYKTTPPVLDSDGSFFLVSKLTVDKSRWQQGNVFSCSVMHEALHNHYTQKSLSLSPGK SQQIYGVVYGNVTFHVPSNVPLKEVLWKKQKDKVAELENSEFRAFSSFKNRVYLDTVSGSLTIYNLTSSDEDEYEMESPNITDTMKFFLYVLESGGGGSDKTHTCPPCPAPELLGAPSVFLFPPKPKDTLMISRTPEVTCVVVAVKHEDPEVKFNWYVDGVEVHNAKTKPREEQYNSTYRVVSVLTVLHQDWLNGKEYKCKVSNKALAAPIEKTISKAKGQPREPQVYTLPPCREEMTKNQVSLWCLVKGFYPSDIAVEWESNGQPENNYKTTPPVLDSDGSFFLYSKLTVDKSRWQQGNVFSCSVMHEALHNHYTQKSLSLSPGK light: not shown |  | no binding (tested: 25 nM)
NEG218 (antibody, V domains shown, also called CD19 antibody NEG218; anti-CD19 antibody NEG218) VH: EVQLVQSGAEVKKPGESLKISCKASGYSFTNYWMNWVRQMPGKGLEWMGMIHPSDSEIRLNQKFQGQVTLSVDKSIGTAYMQWSSLKASDTAMYYCSRWYYLSSPMDYWGQGTTVTVSS VL: EIVMTQSPATLSVSPGERATLSCRASQDVGTAVAWYQQKPGQAPRLLIYWASTRHTGIPARFSGSGSGTEFTLTISSLQSEDFAVYFCQQYSSYPYTFGQGTKLEIK | binds | 
